# Results as given in patent US20210238305A1 (REMEGEN, published 2021).
# Target: T1, human epidermal growth factor receptor 2 (Her2) (human, UniProt P04626 23-1255)
# T1 construct: whole, on cells; Endogenous Her2 in fixed patient tissue; also called ErbB2
# Assay: IHC grade, no antigen retrieval, breast carcinoma sample 5 (18-07814-1)
binder,measurement,value
"RC48M antibody (antibody, mouse IgG1, kappa, V domains shown, also called R48M) VH: EVQLVQSGAEVKKPGATVKISCKVSGYTFTDYYIHWVQQAPGKGLEWMGRVNPDHGDSYYNQKFKDKATITADKSTDTAYMELSSLRSEDTAVYFCARNYLFDHWGQGTLVTVSS VL: DIQMTQSPSSVSASVGDRVTITCKASQDVGTAVAWYQQKPGKAPKLLIYWASIRHTGVPSRFSGSGSGTDFTLTISSLQPEDFATYYCHQFATYTFGGGTKVEIKR",binding result,binds
